Columns and labels:
[1] = target: T1, GPBP (Homo sapiens, UniProt Q9Y5P4); test: in vitro GPBP autophosphorylation in the presence of GPΔIII-derived peptide; type: biochemical; settings: about 200 ng rGPBP, 150 μM ATP, 5 nmol peptide
T1 construct: made in house; host or cells: Pichia pastoris GS115
T1 sequence (Q9Y5P4 1-624): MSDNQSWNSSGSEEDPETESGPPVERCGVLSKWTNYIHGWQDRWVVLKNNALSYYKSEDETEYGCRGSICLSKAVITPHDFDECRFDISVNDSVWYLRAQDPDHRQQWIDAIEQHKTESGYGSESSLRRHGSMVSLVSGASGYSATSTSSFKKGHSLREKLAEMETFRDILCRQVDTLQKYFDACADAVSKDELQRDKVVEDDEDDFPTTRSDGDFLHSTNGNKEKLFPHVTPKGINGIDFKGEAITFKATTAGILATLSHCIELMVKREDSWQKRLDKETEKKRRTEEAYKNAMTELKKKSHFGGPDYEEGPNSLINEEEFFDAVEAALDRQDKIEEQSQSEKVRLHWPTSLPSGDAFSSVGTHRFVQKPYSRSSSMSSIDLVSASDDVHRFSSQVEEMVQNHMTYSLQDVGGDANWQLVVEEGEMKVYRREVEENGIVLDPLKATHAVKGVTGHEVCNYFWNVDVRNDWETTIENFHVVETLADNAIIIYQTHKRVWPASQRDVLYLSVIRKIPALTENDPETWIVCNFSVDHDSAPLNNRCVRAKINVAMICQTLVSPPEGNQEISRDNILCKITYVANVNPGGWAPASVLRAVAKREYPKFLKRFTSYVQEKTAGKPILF
Procedure: FIG. 20. Regulation of the GPBP by the C terminal region of GPΔIII. About 200 ng of RGPBP were in vitro phosphorylated with 150 μM ATP in the absence (lane 1) or in the presence of 5 nmol of GPΔIII-derived peptide synthesized either using Boc-(lane 2) or Fmoc-(lane 3) chemistry. The reaction mixtures were subjected to SDS-PAGE, transferred to PVDF and autoradiographed to assess autophosphorylation, and subsequently blotted with anti-FLAG monoclonal antibodies (Sigma) to determine the amount of recombinant material present (Western).
In vitro phosphorylation assays-About 200 ng of rGPBP were incubated overnight at 30° C. in 25 mM P-glycerolphosphate (pH 7.0), 0.5 mM EDTA, 0.5 mM EGTA, 8 mM MgCl2, 5 mM MnCl2, 1 mM DTT and 0.132 μM γ-^32P-ATP, in the presence or absence of 0.5-1 μg of protein substrates or 10 nmoles of synthetic peptides, in a total volume of 50 μl.
(§1) Phosphorylation studies. Phosphorylation studies were essentially done as described above (see also 3 and 11). In some experiments, the substrates were in-blot renatured and then, phosphorylated for 30 min at room temperature by overlaying 100 μl of phosphorylation buffer containing 0.5 μg of RGPBP. Digestion with V8 endopeptidase and immunoprecipitation were performed as described in (3).

[2] = target: T2, PKA (Bos taurus, UniProt P00517); test: PKA phosphorylation of native GP antigen (α3(IV)NC1 monomer or hexamer) in the presence of C-terminal peptides; type: biochemical; settings: for induction of GP antigen phosphorylation by PKA (22 kDa conformer of α3(IV)NC1): 0.1 μM ATP, 10 nmol peptide
Procedure: FIG. 16. Phosphorylation of GP alternative splicing products by PKA. In left panel, equimolecular amounts of rGP (lanes 1), rGPΔV (lanes 2), rGPΔIII (lanes 3) or rGPΔIII/IV/V (lanes 4), equivalent to 500 ng of the GP were phosphorylated at the indicated ATP concentrations. One-fifth of the total phosphorylation reaction mixture was separated by gel electrophoresis and transferred to PVDF, autoradiographed (shown) and the proteins blotted with M3/1, a specific monoclonal antibody recognizing all four species (shown) or using antibodies specific for each individual C-terminal region (not shown). […] Right panel: purified α3(IV)NC1 domain or hexamer was phosphorylated with PKA and 0.1 μM ATP in the absence (lanes 1) or in the presence of 10 nmol of peptides representing the C-terminal region of either GPΔIII (lanes 2) or GPΔIII/IV/V (lanes 3). Where indicated the phosphorylation mixtures of purified α3(IV)NC1 domain were V8 digested and immunoprecipitated with antibodies specific for the N terminus of the human α3(IV)NC1 domain (3). Bars and numbers indicate the position and sizes (kDa) of the molecular weight markers.
as §1
Regulation of the phosphorylation of the human GP antigen by alternative splicing. We produced bacterial recombinant proteins representing the primary antigen (GP) or the individual alternative products GPΔV (SEQ ID NO:46), GPΔIII (SEQ ID NO:48) and GPΔIII/IV/V (SEQ ID NO:50), and we tested their ability to be phosphorylated by PKA (FIG. 16, left panel). […] Accordingly, the differences observed in phosphorylation for the full polypeptides also existed among the individual N-terminal regions, as determined after specific V8 digestion and immunoprecipitation (not shown). […]

[3] = target: T2, PKA; test: in vitro phosphorylation of the synthetic peptides by PKA; type: biochemical; settings: not shown
[4] = target: the molecule itself; test: gel filtration HPLC and analytical centrifugation
Procedure: FIG. 11. rGPBP and rGPBPΔ26 form very active high molecular weight aggregates. About 300 μg of rGPBP (A) or rGPBPΔ26 (B) were subjected to gel filtration HPLC as described under Material and Methods. Vertical arrowheads and numbers respectively indicate the elution profile and molecular mass (kDa) of the molecular weight standards used. Larger aggregates eluted in the void volume (I), and the bulk of the material present in the samples eluted in the fractionation range of the column as a second peak between the 669 and 158 kDa markers (II). Fifteen microliters of the indicated minute fractions were subjected to SDS-PAGE and Coomasie blue staining. Five microliters of the same fractions were in vitro phosphorylated as described in Materials and Methods, and the reaction stopped by boiling in SDS sample buffer. The fractions were loaded onto SDS-PAGE, transferred to PVDF and autoradiographed for 1 or 2 hours using Kodak X-Omat films and blotted using anti-FLAG monoclonal antibodies (Sigma).
Northern hybridization studies Pre-made human multiple-tissue and tumor cell-line Northern Blots (CLONTECH) were probed with a cDNA containing the 78-bp exon present only in GPBP or with a cDNA representing both isoforms. […] The material was eluted from the column at 0.5 ml/min, monitored at 220 nm and minute fractions collected. […]

[5] = target: T3, GPpep1
T3 chain: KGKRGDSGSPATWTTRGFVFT

[6] = target: T4, native bovine α3(IV)NC1 domain (bovine GP antigen), Q28084
T4 chain: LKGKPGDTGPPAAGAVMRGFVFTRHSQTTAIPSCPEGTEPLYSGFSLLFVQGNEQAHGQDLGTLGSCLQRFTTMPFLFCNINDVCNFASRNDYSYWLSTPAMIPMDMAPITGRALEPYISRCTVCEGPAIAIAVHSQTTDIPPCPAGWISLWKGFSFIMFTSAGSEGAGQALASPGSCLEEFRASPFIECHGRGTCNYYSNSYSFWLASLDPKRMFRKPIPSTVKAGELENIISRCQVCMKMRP

[7] = target: T5, prokaryotic human recombinant α3(IV)NC1
T5 chain: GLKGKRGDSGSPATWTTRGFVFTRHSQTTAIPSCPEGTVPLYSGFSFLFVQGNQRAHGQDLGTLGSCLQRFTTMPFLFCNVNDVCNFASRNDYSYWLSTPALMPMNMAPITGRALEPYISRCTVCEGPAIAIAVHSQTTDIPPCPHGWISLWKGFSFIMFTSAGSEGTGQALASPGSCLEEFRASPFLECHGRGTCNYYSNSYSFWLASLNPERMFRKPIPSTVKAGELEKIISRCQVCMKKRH

What does the source list for QRAHGQDLDALFVKVLRSP [Boc-based peptide]?
effect on GPBP autophosphorylation [1]: positively influenced GPBP autophosphorylation; retention of ability to induce PKA on storage ([2]; long storage at low temperatures): loses its ability to induce PKA; in vitro substrate of PKA [3]: in vitro substrates of PKA

Which “induction of GP antigen phosphorylation by PKA (22 kDa conformer of α3(IV)NC1)” value [2] does the source give for “QRAHGQDLESLFHQL [SEQ ID NO:44, synthetic peptide representing the C-terminal region of GPΔIII/IV/V]” here?
Its value is “induced the phosphorylation of a single polypeptide”.

How did the “effect on GPBP autophosphorylation” value [1] turn out when “QRAHGQDLDALFVKVLRSP [Fmoc-based peptide]” was run?
Its value is “inhibited GPBP autophosphorylation”.

And the “in vitro substrate of PKA” value [3]?
The value was “not”.

How did the “induction of GP antigen phosphorylation by PKA (22 kDa conformer of α3(IV)NC1)” value [2] turn out when “QRAHGQDLDALFVKVLRSP [SEQ ID NO: 43, synthetic peptide representing the C-terminal region of GPΔIII]” was run?
The value was “induced the phosphorylation of a single polypeptide”.

B1: FLAG-tagged recombinant GPBP (rGPBP) (enzyme)
chain: DYKDDDDKMSDNQSWNSSGSEEDPETESGPPVERCGVLSKWTNYIHGWQDRWVVLKNNALSYYKSEDETEYGCRGSICLSKAVITPHDFDECRFDISVNDSVWYLRAQDPDHRQQWIDAIEQHKTESGYGSESSLRRHGSMVSLVSGASGYSATSTSSFKKGHSLREKLAEMETFRDILCRQVDTLQKYFDACADAVSKDELQRDKVVEDDEDDFPTTRSDGDFLHSTNGNKEKLFPHVTPKGINGIDFKGEAITFKATTAGILATLSHCIELMVKREDSWQKRLDKETEKKRRTEEAYKNAMTELKKKSHFGGPDYEEGPNSLINEEEFFDAVEAALDRQDKIEEQSQSEKVRLHWPTSLPSGDAFSSVGTHRFVQKPYSRSSSMSSIDLVSASDDVHRFSSQVEEMVQNHMTYSLQDVGGDANWQLVVEEGEMKVYRREVEENGIVLDPLKATHAVKGVTGHEVCNYFWNVDVRNDWETTIENFHVVETLADNAIIIYQTHKRVWPASQRDVLYLSVIRKIPALTENDPETWIVCNFSVDHDSAPLNNRCVRAKINVAMICQTLVSPPEGNQEISRDNILCKITYVANVNPGGWAPASVLRAVAKREYPKFLKRFTSYVQEKTAGKPILF
modifications: phosphoserine, phosphothreonine and phosphotyrosine present, sites not given
notes: Made in Pichia pastoris or 293 cells; also called FLAG-n4′
Does B1 bind [4]?
Result: binds

B2: FLAG-tagged recombinant GPBPΔ26 (rGPBPΔ26) (enzyme)
chain: DYKDDDDKMSDNQSWNSSGSEEDPETESGPPVERCGVLSKWTNYIHGWQDRWVVLKNNALSYYKSEDETEYGCRGSICLSKAVITPHDFDECRFDISVNDSVWYLRAQDPDHRQQWIDAIEQHKTESGYGSESSLRRHGSMVSLVSGASGYSATSTSSFKKGHSLREKLAEMETFRDILCRQVDTLQKYFDACADAVSKDELQRDKVVEDDEDDFPTTRSDGDFLHSTNGNKEKLFPHVTPKGINGIDFKGEAITFKATTAGILATLSHCIELMVKREDSWQKRLDKETEKKRRTEEAYKNAMTELKKKSHFGGPDYEEGPNSLINEEEFFDAVEAALDRQDKIEEQSQSEKVRLHWPTSLPSGDAFSSVGTHRFVQKVEEMVQNHMTYSLQDVGGDANWQLVVEEGEMKVYRREVEENGIVLDPLKATHAVKGVTGHEVCNYFWNVDVRNDWETTIENFHVVETLADNAIIIYQTHKRVWPASQRDVLYLSVIRKIPALTENDPETWIVCNFSVDHDSAPLNNRCVRAKINVAMICQTLVSPPEGNQEISRDNILCKITYVANVNPGGWAPASVLRAVAKREYPKFLKRFTSYVQEKTAGKPILF
notes: From plasmid pHIL-FLAG-n4′Δ26, expressed in Pichia pastoris
For B2, which “trans-phosphorylation activity with 5 nmol GPpep1” value [5] is on record?
Its value is “the reduced in-solution auto- and trans-phosphorylation activities displayed by rGPBPΔ26”.

And the “conformers and oligomers after DTT consumption, Western blot” value [6]?
The value was “Essentially the same results were obtained when blotting the samples that contained GPBPΔ26”.

And the “disruption of disulfide-based aggregates, Western blot” value [7]?
Its value is “GPBP and, to a lesser extent GPBPΔ26 disrupted disulfide-based high molecular weight aggregates characteristic of recombinant material representing human α3(IV)NC1 produced in bacteria”.

Does B2 bind [4]?
Result: binds

— US6881547B1, “Methods and reagents for treating autoimmune disorders” (priority 2001, dated 2005)
